Measured values published in patent US8846873B2, “Antibodies directed to GPNMB and uses thereof” (Celldex Therapeutics, Inc., priority 2004, dated 2014).

Tests used:
A2058 = assay: Clonogenic assay with 1.15.1-AE; assay type: cell-based, human
Description: (§1) Melanoma cell lines were plated onto flat bottom 96-well tissue culture plates (Becton Dickinson, Franklin Lakes, N.J., USA). On day 2 or when cells reach ˜25% confluency, various concentrations of unconjugated and Auristatin E-conjugated 1.15.1 were added to cells. MAb 2.6.2-AE was also used as a conjugated isotype control in this study. On day 5, the cells were trypsinized, transferred to 6-well tissue culture plates and incubated at 37° C. Plates were examined daily. On days 8-10, all plates were Giemsa stained and colonies on the plates were counted.

G361 = assay: Clonogenic assay with 1.15.1-AE; assay type: cell-based, human
Description: as §1

HEMNLP = assay: Clonogenic assay with 1.15.1-AE; assay type: cell-based, human
Description: as §1

LOXIMVI = assay: Clonogenic assay with 1.15.1-AE; assay type: cell-based, human
Description: as §1

M14 = assay: Clonogenic assay with 1.15.1-AE; assay type: cell-based, human
Description: as §1

RPMI-7951 = assay: Clonogenic assay with 1.15.1-AE; assay type: cell-based, human
Description: as §1

SK-Mel 2 = assay: Clonogenic assay with 1.15.1-AE; assay type: cell-based, human
Description: as §1

SK-Mel 5 = assay: Clonogenic assay with 1.15.1-AE; assay type: cell-based, human
Description: as §1

UACC-62 = assay: Clonogenic assay with 1.15.1-AE; assay type: cell-based, human
Description: as §1

[1] = Pharmacokinetics of CR011-vcMMAE after intravenous administration (sandwich ELISA of serum); assay type: in vivo, athymic mice; conditions: for A (pre-exponential constant for alpha phase) / AUC (total area under the curve from 0 to infinity) / Alpha (exponential rate constant for alpha phase) / Alpha-Half Life / B (pre-exponential constant for beta phase) / Beta (exponential rate constant for beta phase) / Beta- Half Life / Cl (total or systemic clearance) / Cmax / Volume (volume of central compartment) / Vss (steady-state volume of distribution): athymic mice, serum
Excerpt: Abbreviations: A: Pre-exponential constant for alpha phase; Alpha: Exponential rate constant for alpha phase; AUC Total area under the curve from 0 to infinity; B: Pre-exponential constant for beta phase; Beta: Exponential rate constant for beta phase; Cl: Total or systemic clearance; Cmax: Maximum observed concentration; MRT: Mean residence time; Volume: Volume of central compartment; Vss: Steady-state volume of distribution.

In the case of “CR011-vcMMAE: anti-GPNMB antibody 1.15.1 coupled to monomethylauristatin E via protease-sensitive valine-citrulline linker”, the “Clonogenic Assay with 1.15.1-AE IC50” value (A2058) is reported as “No effect”, the “Clonogenic Assay with 1.15.1-AE IC50” value (G361) is reported as 1.053 µg/mL and the IC50 (G361) is reported as 6.5 nM. The “Clonogenic Assay with 1.15.1-AE IC50” value (HEMNLP) was “Inconclusive”, the “Clonogenic Assay with 1.15.1-AE IC50” value (LOXIMVI) was “No effect” and the “Clonogenic Assay with 1.15.1-AE IC50” value (M14) was “Inconclusive”. The “Clonogenic Assay with 1.15.1-AE IC50” value (RPMI-7951) was 0.972 µg/mL, the IC50 (RPMI-7951) was 6 nM and the “Clonogenic Assay with 1.15.1-AE IC50” value (SK-Mel 2) was 0.111 µg/mL. The IC50 (SK-Mel 2) was 0.75 nM, the “Clonogenic Assay with 1.15.1-AE IC50” value (SK-Mel 5) was 0.237 µg/mL and the IC50 (SK-Mel 5) was 1.6 nM. For the same substance, the “Clonogenic Assay with 1.15.1-AE IC50” value (UACC-62) was 0.697 µg/mL, the IC50 (UACC-62) was 4.3 nM and the “A (pre-exponential constant for alpha phase)” value ([1]; 1 mg/kg intravenous) was 8.97 µg/mL. For the same substance, the “AUC (total area under the curve from 0 to infinity)” value ([1]; 1 mg/kg intravenous) was 3712 µg·h/mL, the “Alpha (exponential rate constant for alpha phase)” value ([1]; 1 mg/kg intravenous) was 0.179 h⁻¹ and the “Alpha-Half Life” value ([1]; 1 mg/kg intravenous) was 0.162 days. For the same substance, the “B (pre-exponential constant for beta phase)” value ([1]; 1 mg/kg intravenous) was 9.82 µg/mL, the “Beta (exponential rate constant for beta phase)” value ([1]; 1 mg/kg intravenous) was 0.00269 h⁻¹ and the “Beta- Half Life” value ([1]; 1 mg/kg intravenous) was 10.8 days. The “Cl (total or systemic clearance)” value ([1]; 1 mg/kg intravenous) was 6.46 mL/day/kg, the Cmax ([1]; 1 mg/kg intravenous) was 18.8 µg/mL and the “Volume (volume of central compartment)” value ([1]; 1 mg/kg intravenous) was 0.0532 L/kg. The “Vss (steady-state volume of distribution)” value ([1]; 1 mg/kg intravenous) was 0.099 L/kg, the “A (pre-exponential constant for alpha phase)” value ([1]; 10 mg/kg intravenous) was 74.6 µg/mL and the “AUC (total area under the curve from 0 to infinity)” value ([1]; 10 mg/kg intravenous) was 41210 µg·h/mL. For the same substance, the “Alpha (exponential rate constant for alpha phase)” value ([1]; 10 mg/kg intravenous) was 0.0812 h⁻¹, the “Alpha-Half Life” value ([1]; 10 mg/kg intravenous) was 0.3555 days and the “B (pre-exponential constant for beta phase)” value ([1]; 10 mg/kg intravenous) was 113 µg/mL. The “Beta (exponential rate constant for beta phase)” value ([1]; 10 mg/kg intravenous) was 0.00281 h⁻¹, the “Beta- Half Life” value ([1]; 10 mg/kg intravenous) was 10.3 days and the “Cl (total or systemic clearance)” value ([1]; 10 mg/kg intravenous) was 5.83 mL/day/kg. The Cmax ([1]; 10 mg/kg intravenous) was 188 µg/mL, the “Volume (volume of central compartment)” value ([1]; 10 mg/kg intravenous) was 0.0532 L/kg and the “Vss (steady-state volume of distribution)” value ([1]; 10 mg/kg intravenous) was 0.0845 L/kg. For the same substance, the T1/2β ([1]; 1 or 10 mg/kg intravenously) was 10.3 days, the “contribution of the initial phase (α) to the total AUC” value ([1]; 1 or 10 mg/kg intravenously) was < 2% and the “volume of distribution at steady state (Vss)” value ([1]; intravenous) was “very low”.
